Results on 7 molecules are retold here after patent US20250163183A1 (COAGULANT THERAPEUTICS, published 2025).

Broadly, the Kd is the concentration at which binding is half-saturated. A low value points to a tighter complex. In general, koff refers to the first-order rate constant of dissociation. A low value points to a long-lived complex. For orientation: kon means a measure of how fast the partners come together. A higher kon goes with faster complex formation.

Where only a bound is given, the exact number is not on record here.

One experiment addresses T1, FVIIa (UniProt P08709 61-466).
T1 construct: also called factor VIIa
T1 sequence (looked up): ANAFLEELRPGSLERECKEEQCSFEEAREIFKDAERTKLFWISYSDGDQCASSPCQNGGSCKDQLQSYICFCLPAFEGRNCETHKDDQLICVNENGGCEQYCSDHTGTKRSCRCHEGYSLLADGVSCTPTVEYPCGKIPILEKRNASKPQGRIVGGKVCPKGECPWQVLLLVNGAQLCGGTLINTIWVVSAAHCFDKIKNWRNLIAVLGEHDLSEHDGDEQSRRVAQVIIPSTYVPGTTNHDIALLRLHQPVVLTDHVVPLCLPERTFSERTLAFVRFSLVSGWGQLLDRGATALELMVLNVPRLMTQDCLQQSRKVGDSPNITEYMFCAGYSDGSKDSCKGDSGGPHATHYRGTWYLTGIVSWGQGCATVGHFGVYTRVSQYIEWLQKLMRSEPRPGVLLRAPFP
Kind of experiment: ELISA, FVIIa coated at 10 µg/mL, HRP-anti-V5, n=3. A general note: In an ELISA, binding on a coated surface is turned into a signal by an enzyme label.

The target of experiment [1] is T2, human protein C (PC) zymogen (human, UniProt P04070 43-197; P04070 200-461).
T2 construct: Bought
T2 sequence (P04070 43-197, chain 1 of 2): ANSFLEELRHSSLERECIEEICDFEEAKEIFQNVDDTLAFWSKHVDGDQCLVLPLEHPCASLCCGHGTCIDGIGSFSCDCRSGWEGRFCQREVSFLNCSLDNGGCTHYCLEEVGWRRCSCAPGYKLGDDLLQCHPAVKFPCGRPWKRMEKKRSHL
T2 sequence (P04070 200-461, chain 2 of 2): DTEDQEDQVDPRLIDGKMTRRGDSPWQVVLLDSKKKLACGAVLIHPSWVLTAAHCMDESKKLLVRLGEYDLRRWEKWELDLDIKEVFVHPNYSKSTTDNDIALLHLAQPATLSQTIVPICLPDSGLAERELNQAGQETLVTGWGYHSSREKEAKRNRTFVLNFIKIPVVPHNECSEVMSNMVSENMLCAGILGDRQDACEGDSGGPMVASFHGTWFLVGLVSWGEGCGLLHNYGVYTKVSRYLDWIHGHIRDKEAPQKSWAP
Kind of experiment: ELISA screen, PC-coated wells, OD450, n=2 [Continued].

Experiment [2] addresses T3, human activated protein C (APC) (human, UniProt P04070 43-461). Kind of experiment: cell-based or functional assay.
Experiment [3] deals with T3, human activated protein C (APC). The experiment in a line: BLI, VHH captured via anti-V5, APC in solution. A general note: In BLI a coated tip is dipped into the sample, and binding shifts an interference pattern.
For experiment [4] the target is unchanged. The experiment in a line: BLI (Octet), nanobody captured, 5 APC concentrations, 1:1 model; written in place of a bar.
For the next experiment, the target named is T4, FXIa (UniProt P03951 19-625).
T4 construct: also called factor XIa
T4 sequence (P03951 19-625 limits assumed): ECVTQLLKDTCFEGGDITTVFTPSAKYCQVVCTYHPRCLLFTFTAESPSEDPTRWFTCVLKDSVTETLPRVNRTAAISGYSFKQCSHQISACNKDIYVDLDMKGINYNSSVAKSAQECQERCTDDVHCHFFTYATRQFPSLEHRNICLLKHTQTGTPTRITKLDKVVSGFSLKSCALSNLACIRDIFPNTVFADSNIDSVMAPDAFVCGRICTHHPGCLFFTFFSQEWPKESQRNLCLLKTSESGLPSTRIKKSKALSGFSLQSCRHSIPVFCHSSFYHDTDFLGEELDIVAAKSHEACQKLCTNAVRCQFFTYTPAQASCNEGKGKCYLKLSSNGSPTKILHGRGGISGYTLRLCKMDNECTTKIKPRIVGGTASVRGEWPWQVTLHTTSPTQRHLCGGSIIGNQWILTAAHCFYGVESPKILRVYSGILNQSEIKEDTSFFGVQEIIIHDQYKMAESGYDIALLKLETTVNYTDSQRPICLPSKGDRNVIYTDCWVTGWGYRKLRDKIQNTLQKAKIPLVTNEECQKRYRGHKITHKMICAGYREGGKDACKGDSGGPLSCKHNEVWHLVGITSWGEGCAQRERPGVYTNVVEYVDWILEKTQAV
The experiment in a line: ELISA, FXIa coated at 10 µg/mL, HRP-anti-V5, n=3.

Experiment [5] deals with T3, human activated protein C (APC). The experiment in a line: BLI (Octet): nanobody captured on anti-V5 sensor, dipped in 500 nM APC; buffer sensor reads 0.06.
Experiment [6] shares this target. Kind of experiment: cell-based or functional assay. This is another data set of the same source.
Experiment [7] shares this target. Kind of experiment: BLI; end tied to LP8 by Table 5; upper end of the kon range; LP8.
In experiment [8] the target is T2, human protein C (PC) zymogen. Kind of experiment: ELISA screen, PC-coated wells, OD450, n=2.
Experiment [9] shares this target. The experiment in a line: ELISA.
Experiment [10] deals with T3, human activated protein C (APC). The experiment in a line: BLI; end tied to LP2 by Table 5; lower end of the kon range; LP2.
The target of experiment [11] is T2, human protein C (PC) zymogen. The experiment in a line: ELISA screen, PC-coated wells, OD450, n=2 [Continued]. The source holds these as a separate data set.
In experiment [12] the target is T3, human activated protein C (APC). The experiment in a line: BLI; end tied to LP12 by Table 5; lower end of the koff range, LP9 set apart; LP12.

T3 sequence (P04070 other isoform, or with tags, fused parts or gaps): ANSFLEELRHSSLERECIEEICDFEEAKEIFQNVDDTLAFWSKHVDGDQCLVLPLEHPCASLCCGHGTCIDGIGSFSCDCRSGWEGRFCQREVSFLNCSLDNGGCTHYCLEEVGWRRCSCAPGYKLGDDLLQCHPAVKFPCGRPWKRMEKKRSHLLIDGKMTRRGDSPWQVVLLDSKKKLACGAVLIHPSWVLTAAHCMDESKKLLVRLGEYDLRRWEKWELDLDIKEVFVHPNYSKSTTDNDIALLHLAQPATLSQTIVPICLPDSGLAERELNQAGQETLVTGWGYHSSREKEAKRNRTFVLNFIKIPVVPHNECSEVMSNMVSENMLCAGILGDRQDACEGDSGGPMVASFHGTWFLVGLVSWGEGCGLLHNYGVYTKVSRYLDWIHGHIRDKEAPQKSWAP

B1: LP9 (SR16983-R3-P3-B05) (VHH, not shown: small tags and cut ends)
VHH: EVQLVESGGGLVQAGGSLRLSCAASGRTFVGSYVMGWFRQAPGKEREFVAASSRSTGNTVYLDSVKGRFTVSRDDAKNTLYLQMNSLKTEDTAVYYCATRASINYNAATWPYWGQGTQVTVSS
notes: Llama VHH purified from E. coli periplasm
With B1, the binding result was “no binding (tested: 2 µg/mL)” with FVIIa, “no binding” in experiment [1] and “no binding (tested: 2 µg/mL)” in the experiment with FXIa. For the same molecule, the “APC plasma T1/2 (min; mean)” value in experiment [2] was determined as 27.7 min. The figures for the Kd in [3] and in [4] were 0.003 nM and less than 0.01 nM, respectively. The koff in [3] was found to be 6.3e-07 s⁻¹. This molecule also showed a kon in experiment [3] of 210000 M⁻¹ s⁻¹. Besides, the “APC binding (nm)” value in experiment [5] amounted to 0.33 nm. Moreover, the “Protac-APTT clotting time, 300 nM nanobody” value (shortened to “Protac-APTT clotting time”) in experiment [6] was greater than 90%.

B2: LP8 (SR16983-R3-P3-A04) (VHH, not shown: small tags and cut ends)
VHH: QLQLVESGGGLVEAGGSLRLSCAASGRTFSSGALGWFRQAPGKEREFVATIRWSDERTQYSEFVKGRFTISRDNAKNTVYLQMNNLQPEDTAVYYCRSTVGNLLYWGQGTQVTVSS
notes: as for B1
Molecule B2 gave a kon in experiment [7] of 622000 M⁻¹ s⁻¹. The binding result in the experiment with FVIIa was “no binding (tested: 2 µg/mL)”. Besides, in experiment [3], binding was characterised by a dissociation constant (Kd) of 2.8 nM, the koff is 0.0017 s⁻¹ and the kon was 620000 M⁻¹ s⁻¹. In addition, the binding result in experiment [8] is given as “no binding”. Further, the binding result in the experiment with FXIa was “no binding (tested: 2 µg/mL)”. In addition, in [5], the “APC binding (nm)” value came out at 0.32 nm. In [6], the “APC-mediated histone H3 cleavage, 500 nM nanobody” value (“APC-mediated histone H3 cleavage” for short) is less than 75 % residual activity and the “Protac-APTT clotting time” value is greater than 90%.

B3: LP10 (SR16983-R3-P3-E06) (VHH, not shown: small tags and cut ends)
VHH: QVQLVESGGGLVQAGGSLRLSCAASGTIESINDMGWYRQAPGKQRELVATVSSSGMTNYADSAKGRFTISRDNAKNTMYLQMNSLKPEDTAVYYCKAHISRSYYYDSLGYDYWGQGTQVTVSS
notes: as for B1
Consider B3, for which the binding result in [9] is recorded as “no binding”; with FVIIa, “no binding (tested: 2 µg/mL)”; with FXIa, “no binding (tested: 2 µg/mL)”. Further, in experiment [2], the “APC plasma T1/2 (min; mean)” value amounted to 29.3 min. Binding in [3] was put at a Kd of 4.5 nM. This molecule came in with a koff in experiment [3] of 0.0011 s⁻¹. Besides, the kon in [3] was 230000 M⁻¹ s⁻¹. In addition, the “APC binding (nm)” value in [5] stood at 0.29 nm. For the same molecule, in experiment [6], the “APC-mediated histone H3 cleavage” value is less than 75 % residual activity.

B4: LP2 (SR16983-R2-P3-H10) (VHH, not shown: small tags and cut ends)
VHH: QVQLVESGGGLVQAGGSLRLSCAASGRPISAYTWAWFRQAPGKEREFVAAITSSAGTTYYADSVRGRFTISRDNAENTVYLRMNTLKPEDTAVYYCAADDQGDNWYDHWGQGTQVTVSS
notes: as for B1
For B4, the values for the binding result (with FVIIa; in experiment [8]; with FXIa) were “no binding (tested: 2 µg/mL)”, “no binding” and “no binding (tested: 2 µg/mL)”, respectively. Moreover, the “APC plasma T1/2 (min; mean)” value in [2] worked out at 38.2 min. For the same molecule, in experiment [3], the affinity, expressed as Kd, was 8.8 nM. This molecule had a koff in experiment [3] of 0.0011 s⁻¹. For the same molecule, the kon in experiment [3] amounted to 130000 M⁻¹ s⁻¹; in [10], 126000 M⁻¹ s⁻¹. Also, the “APC binding (nm)” value in experiment [5] turned out to be 0.29 nm. Moreover, the “APC-mediated histone H3 cleavage” value in [6] is less than 75 % residual activity. In addition, the “Protac-APTT clotting time” value in experiment [6] is greater than 90%.

B5: LP18 (SR16983-R4-P1-A11) (VHH, not shown: small tags and cut ends)
VHH: QLQLVESGGGLVQPGGSLRLSCAASGFTFSTKWMYWVRQGPGKGLERVAAIDAGGTSTYYADSVKGRFTISRDNSENTVYLQMNSLESADTAVYYCARSEGGLFRGRGTQVTVSA
notes: as for B1
In the case of B5, the binding result in experiment [11] is given as “no binding”. Besides, the binding result with FVIIa is listed as “no binding (tested: 2 µg/mL)”. In addition, the “APC plasma T1/2 (min; mean)” value in experiment [2] was found to be 16.1 min. In [3], the Kd was 4.5 nM, the koff is 0.0011 s⁻¹ and the kon is 240000 M⁻¹ s⁻¹. The binding result with FXIa is reported as “no binding (tested: 2 µg/mL)”. Moreover, in experiment [5], the “APC binding (nm)” value came to 0.29 nm. Besides, the “R46/R41 cleavage ratio of PAR1 by APC” value in experiment [6] was greater than 1 ratio.

B6: LP7 (SR16983-R3-P2-H08) (VHH, not shown: small tags and cut ends)
VHH: EVQLVESGGGLVQAGGSLRLSCAASGTTFDMNSMGWYRQGPGFKRELVATISMGGDTNYADSVKGRFTISRANAKNTVYMQMNSLKPEDTAVYYCNAERIWPNRRTFWGQGTQVTVSS
notes: as for B1
B6: the binding result in experiment [11] is “no binding”. In the experiment with FVIIa, the binding result is “no binding (tested: 2 µg/mL)”. In experiment [2], the “APC plasma T1/2 (min; mean)” value was determined as 33.9 min. In experiment [3], this molecule yielded an equilibrium dissociation constant (Kd) of 9.4 nM, a koff of 0.0041 s⁻¹ and a kon of 440000 M⁻¹ s⁻¹. For the same molecule, the binding result with FXIa is on record as “no binding (tested: 2 µg/mL)”. In experiment [5], the “APC binding (nm)” value was found to be 0.34 nm. Also, the “APC-mediated histone H3 cleavage” value in experiment [6] was less than 75 % residual activity.

B7: LP12 (SR16983-R3-P3-F06) (VHH, not shown: small tags and cut ends)
VHH: QLQLVESGGGLVQAGDSLRLSCTSSGLTASTYAMAWFRQAPGKEREFVAVVDWKGDTTYANSVKGRFTLSRDNGKNTNYLQMNSLQPEDTALYYCAARGSPGYVARLYAHWGRGTQVTVSS
notes: as for B1
On to B7, for which the binding result in experiment [9] is “no binding”; in the experiment with FVIIa it was “no binding (tested: 2 µg/mL)”; with FXIa it was “no binding (tested: 2 µg/mL)”. Further, in experiment [2], the “APC plasma T1/2 (min; mean)” value was 50.1 min. In addition, the Kd in experiment [3] is 0.68 nM. Moreover, the koff in experiment [3] is 0.00026 s⁻¹; in experiment [12], 0.000259 s⁻¹. In experiment [3], the kon came out at 380000 M⁻¹ s⁻¹. Moreover, the “APC binding (nm)” value in experiment [5] was found to be 0.31 nm. The “APC-mediated histone H3 cleavage” value in experiment [6] was less than 75 % residual activity.
